This is an account of results in article PMC7346168, “Redox Conformation-Specific Protein–Protein Interactions of the 2-Cysteine Peroxiredoxin in Arabidopsis” (Antioxidants, 2020).

Substitutions are numbered along the chain they refer to.

Assay [1] deals with T1, 2-CysPRXA C54S (pseudo-reduced variant) (Arabidopsis, UniProt Q96291 66-266, C54S).
T1 sequence: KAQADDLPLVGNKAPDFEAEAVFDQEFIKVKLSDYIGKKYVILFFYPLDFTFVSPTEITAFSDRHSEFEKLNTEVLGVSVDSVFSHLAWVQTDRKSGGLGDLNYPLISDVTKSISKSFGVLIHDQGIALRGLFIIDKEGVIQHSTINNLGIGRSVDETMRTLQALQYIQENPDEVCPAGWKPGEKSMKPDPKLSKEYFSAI
Briefly: ITC; oxidized (unit printed as M).

The target in assay [2] is T2, 2-CysPRXA C54S (pseudo-reduced variant) (Arabidopsis, UniProt Q96291 66-266, C54S).
T2 construct: 2-Cys peroxiredoxin A, Arabidopsis; source: E. coli BL21, recombinant (pET28a)
T2 sequence (looked up): T1 sequence
As to the kind of experiment: ITC; CP12-1 injected into 2-CysPRXA C54S under oxidizing conditions (proteins treated with 1 mM H2O2, dialysed); 35 mM HEPES pH 8.0. The settings on record: both partners purified.

For assay [3], the target named is T3, 2-cysteine peroxiredoxin A, wild type (2-CysPRXA WT) (Arabidopsis, UniProt Q96291 66-266).
T3 chain: T1 sequence with S54C
Briefly: ITC; reduced (unit printed as M).

Assay [4] has as its target T4, 2-cysteine peroxiredoxin A, wild type (2-CysPRXA WT) (Arabidopsis, UniProt Q96291 66-266).
T4 sequence (looked up): T1 sequence with S54C
As to the kind of experiment: cell-based or functional assay.

Assay [5] has as its target T4, 2-cysteine peroxiredoxin A, wild type …. Briefly: ITC; LOX2 injected into 2-CysPRX WT under reducing conditions (proteins treated with 10 mM DTT, dialysed); 35 mM HEPES pH 8.0. The settings on record: both partners purified.

B1: CHLOROPLAST PROTEIN 12-1, recombinant hisx6-tagged (natural protein, Arabidopsis thaliana, UniProt O22914 48-124, looked up)
chain: TSEGEISEKVEKSIQEAKETCADDPVSGECVAAWDEVEELSAAASHARDKKKAGGSDPLEEYCNDNPETDECRTYDN
notes: Calvin cycle protein CP12-1, Arabidopsis thaliana; also called CP12-1; CHLOROPLAST REGULATOR; source: E. coli BL21, recombinant
Consider B1, for which the Ka in assay [1] was 3.91e+06 M⁻¹. Also, the “stoichiometry N” value in assay [2] was roughly 1.

B2: LIPOXYGENASE 2, recombinant hisx6-tagged (enzyme, Arabidopsis thaliana, UniProt P38418 71-896, looked up)
chain: QNIKVKGYITAQEEFLEGITWSRGLDDIADIRGRSLLVELISAKTDQRITVEDYAQRVWAEAPDEKYECEFEMPEDFGPVGAIKIQNQYHRQLFLKGVELKLPGGSITFTCESWVAPKSVDPTKRIFFSDKSYLPSQTPEPLKKYRKEELETLQGKNREEVGEFTKFERIYDYDVYNDVGDPDNDPELARPVIGGLTHPYPRRCKTGRKPCETDPSSEQRYGGEFYVPRDEEFSTAKGTSFTGKAVLAALPSIFPQIESVLLSPQEPFPHFKAIQNLFEEGIQLPKDAGLLPLLPRIIKALGEAQDDILQFDAPVLINRDRFSWLRDDEFARQTLAGLNPYSIQLVEEWPLISKLDPAVYGDPTSLITWEIVEREVKGNMTVDEALKNKRLFVLDYHDLLLPYVNKVRELNNTTLYASRTLFFLSDDSTLRPVAIELTCPPNINKPQWKQVFTPGYDATSCWLWNLAKTHAISHDAGYHQLISHWLRTHACTEPYIIAANRQLSAMHPIYRLLHPHFRYTMEINARARQSLVNGGGIIETCFWPGKYALELSSAVYGKLWRFDQEGLPADLIKRGLAEEDKTAEHGVRLTIPDYPFANDGLILWDAIKEWVTDYVKHYYPDEELITSDEELQGWWSEVRNIGHGDKKDEPWWPVLKTQDDLIGVVTTIAWVTSGHHAAVNFGQYGYGGYFPNRPTTTRIRMPTEDPTDEALKEFYESPEKVLLKTYPSQKQATLVMVTLDLLSTHSPDEEYIGEQQEASWANEPVINAAFERFKGKLQYLEGVIDERNVNITLKNRAGAGVVKYELLKPTSEHGVTGMGVPYSISI
notes: Lipoxygenase 2, Arabidopsis thaliana; the limits follow from them; also called LOX2; 13-LIPOXYGENASE; source: E. coli BL21, recombinant (pET15b)
In assay [3], B2 gave a Ka of 4.18e+07 M⁻¹. Also, in assay [4], the “LOX2-catalysed peroxidation of α-linolenic acid (absorbance at 234 nm), 0.5 µM LOX2 with 0.5 µM oxidized 2-CysPRXA; rate against LOX2 alone” value was found to be 2.4 fold and the “LOX2-catalysed peroxidation of α-linolenic acid (absorbance at 234 nm), 0.5 µM LOX2 with 0.5 µM reduced 2-CysPRXA; rate against LOX2 alone” value was 1.4 fold. Also, in assay [5], the “stoichiometry N” value is roughly 1.
